From the RNAGym collection of RNA variant scans (doi:10.1021/acssynbio.7b00057)

B1: Pistol ribozyme (parent)
chain: GGGUCGUUGUUCCAUAAUCGCGUGGAUAUGGCACGCAAGUUUCUACCGGGCACCGUAAAUGUCCGACUGGAGCCGUUCGGGCGGCUAUAAACAGACCUCAGGCCCGAAGCGUGGCGGCACCUGCCGCCGGUGGUAAAAAAGAUCGGAAGAGCACACGUCU

Variants of: B1
Assay: aptazyme ON/OFF ratio, guanine; higher = stronger switching; co-transcriptional cleavage with and without guanine

Row | Variant | aptazyme ON/OFF ratio
1 | U7A U8C G9A U11G C12G C13G | 1.31
2 | U7A U8C G9A U11G C12G C13A | 1.19
3 | U7A U8C G9A U11G C12G C13U | 1.15
4 | U7A U8C C13G | 1.16
5 | U7A U8C C13A | 1.26
6 | U7A U8C C13U | 1.51
7 | U7A U8C G9A U10G U11G C12G | 1.44
8 | U7A U8C G9A U10G U11G C12A | 1.11
9 | U7A U8C G9A U10G U11G C12U | 1.39
10 | U7A U8C G9A C12G C13G | 1.12
11 | U7A U8C G9A C12G C13A | 1.13
12 | U7A U8C G9A C12G C13U | 1.2
13 | U7A U8C C12G C13A | 1.18
14 | U7A U8C C12G C13U | 1.35
15 | U7A U8C C12G C13G | 1.19
16 | U7A U8A U11A C12G C13G | 1.13
17 | U7A U8A U11A C12G C13A | 1.17
18 | U7A U8A U11A C12G C13U | 1.16
19 | U7A U8A U10G U11G | 1.38
20 | U7A U8C G9A U10C U11G C13U | 1.46
21 | U7A U8C G9A U10C U11G C13G | 1.37
22 | U7A U8C G9A U10C U11G C13A | 1.33
23 | U7A U8C G9A U10A U11C C12U C13A | 1.12
24 | U7A U8C G9A U10A U11C C12U C13G | 1.15

Row | Variant | aptazyme ON/OFF ratio
25 | U7A U8C G9A U10A U11C C12U C13U | 1.05
26 | U7A U8C G9A U10G U11A C12G | 1.27
27 | U7A U8C G9A U10G U11A C12U | 1.04
28 | U7A U8C G9A U10G U11A C12A | 1.13
29 | U7A U8C G9A U10A C12A C13G | 1.22
30 | U7A U8C G9A U10A C12A C13A | 1.2
31 | U7A U8C G9A U10A C12A C13U | 1.36
32 | U7A U8A U11C C13U | 1.23
33 | U7A U8A U11C C13A | 1.4
34 | U7A U8A U11C C13G | 1.09
35 | U7A U8C G9A U11C C12U C13U | 1.19
36 | U7A U8C G9A U11C C12U C13A | 1.22
37 | U7A U8C G9A U11C C12U C13G | 1.16
38 | U7A U8C G9A U10G U11C C12U C13G | 1.2
39 | U7A U8C G9A U10G U11C C12U C13A | 1.16
40 | U7A U8C G9A U10G U11C C12U C13U | 1.16
41 | U7A U8C G9A U10A U11C C12A | 1.15
42 | U7A U8C G9A U10A U11C C12G | 1.21
43 | U7A U8C G9A U10A U11C C12U | 1.09
44 | U7A U8C G9A U10A U11A C12U C13A | 1.13
45 | U7A U8C G9A U10A U11A C12U C13U | 1.3
46 | U7A U8C G9A U10A U11A C12U C13G | 1.11
47 | U7A U8C G9A U10C U11A C12G C13A | 1.1
48 | U7A U8C G9A U10C U11A C12G C13U | 1.09

Row | Variant | aptazyme ON/OFF ratio
49 | U7A U8C G9A U10C U11A C12G C13G | 1.22
50 | U7A U8C G9A U11C | 1.04
51 | U7A U8C G9A U11A | 1.25
52 | U7A U8C G9A U11G | 1.28
53 | U7A U8C G9A U10C U11C C12U C13G | 1.03
54 | U7A U8C G9A U10C U11C C12U C13A | 1.05
55 | U7A U8C G9A U10C U11C C12U C13U | 1.04
56 | U7A U8A U11A C12A C13G | 1.28
57 | U7A U8A U11A C12A C13A | 1.33
58 | U7A U8A U11A C12A C13U | 1.26
59 | U7A U8C G9A U10C U11A C12U C13G | 1.15
60 | U7A U8C G9A U10C U11A C12U C13A | 1.12
61 | U7A U8C G9A U10C U11A C12U C13U | 1.18
62 | U7A U8C G9A U10A C12G C13G | 1.25
63 | U7A U8C G9A U10A C12G C13U | 1.28
64 | U7A U8C G9A U10A C12G C13A | 1.14
65 | U7A U8C G9A U10C U11G C12A C13G | 1.33
66 | U7A U8C G9A U10C U11G C12A C13U | 1.14
67 | U7A U8C G9A U10C U11G C12A C13A | 1.12
68 | U7A U8C G9A U10C U11A C12A | 1.19
69 | U7A U8C G9A U10C U11A C12G | 1.21
70 | U7A U8C G9A U10C U11A C12U | 1.25
71 | U7A U8C G9A U10A U11C C13U | 1.04
72 | U7A U8C G9A U10A U11C C13A | 1.02

Row | Variant | aptazyme ON/OFF ratio
73 | U7A U8C G9A U10A U11C C13G | 1.03
74 | U7A U8C G9A U10A C12A | 1.26
75 | U7A U8C G9A U10A C12U | 1.17
76 | U7A U8C G9A U10A C12G | 1.24
77 | U7A U8C G9A U10G U11C C12G C13G | 1.09
78 | U7A U8C G9A U10G U11C C12G C13A | 1.21
79 | U7A U8C G9A U10G U11C C12G C13U | 1.18
80 | U7A U8C G9A U10G C12G C13A | 1.27
81 | U7A U8C G9A U10G C12G C13G | 1.2
82 | U7A U8C G9A U10G C12G C13U | 1.31
83 | U7A U8C C12A C13A | 1.28
84 | U7A U8C C12A C13U | 1.24
85 | U7A U8C C12A C13G | 1.11
86 | U7A U8C G9A U10C C12G C13U | 1.23
87 | U7A U8C G9A U10C C12G C13A | 1.12
88 | U7A U8C G9A U10C C12G C13G | 1.16
89 | U7A U8A U11G C12U C13U | 1.35
90 | U7A U8A U11G C12U C13G | 1.25
91 | U7A U8A U11G C12U C13A | 1.2
92 | U7A U8C G9A U10A C13G | 1.07
93 | U7A U8C G9A U10A C13U | 1.2
94 | U7A U8C G9A U10A C13A | 1.22
95 | U7A U8C G9A U10G U11A C12A C13U | 1.24
96 | U7A U8C G9A U10G U11A C12A C13G | 1.11

Row | Variant | aptazyme ON/OFF ratio
97 | U7A U8C G9A U10G U11A C12A C13A | 1.19
98 | U7A U8C G9A U10A U11G C13U | 1.17
99 | U7A U8C G9A U10A U11G C13G | 1.12
100 | U7A U8C G9A U10A U11G C13A | 1.12
101 | U7A U8C G9A U10G U11C C12A C13A | 1.18
102 | U7A U8C G9A U10G U11C C12A C13U | 1.23
103 | U7A U8C G9A U10G U11C C12A C13G | 1.25
104 | U7A U8C G9A U10G U11C | 1.04
105 | U7A U8C G9A U10G U11G | 1.08
106 | U7A U8C G9A U10G U11A | 1.03
107 | U7A U8C G9A U10G U11G C12A C13U | 1.27
108 | U7A U8C G9A U10G U11G C12A C13A | 1.39
109 | U7A U8C G9A U10G U11G C12A C13G | 1.15
110 | U7A U8C G9A U10C | 2.35
111 | U7A U8C G9A U10A | 1.37
112 | U7A U8C G9A U10G | 1.37
113 | U7A U8C G9A U11A C12U C13A | 1.25
114 | U7A U8C G9A U11A C12U C13U | 1.18
115 | U7A U8C G9A U11A C12U C13G | 1.13
116 | U7A U8C G9A U11A C12G C13U | 1.16
117 | U7A U8C G9A U11A C12G C13A | 1.11
118 | U7A U8C G9A U11A C12G C13G | 1.21
119 | U7A U8C G9A U10C U11C C12A C13G | 1.09
120 | U7A U8C G9A U10C U11C C12A C13U | 1.04

Row | Variant | aptazyme ON/OFF ratio
121 | U7A U8C G9A U10C U11C C12A C13A | 1.08
122 | U7A U8C G9A U10G U11C C13A | 1.06
123 | U7A U8C G9A U10G U11C C13U | 1.05
124 | U7A U8C G9A U10G U11C C13G | 1.06
125 | U7A U8C G9A U11C C12G C13G | 1.07
126 | U7A U8C G9A U11C C12G C13U | 1.16
127 | U7A U8C G9A U11C C12G C13A | 1.13
128 | U7A U8A U11C C12A | 1.36
129 | U7A U8A U11C C12U | 1.48
130 | U7A U8A U11C C12G | 1.17
131 | U7A U8C G9A U10G U11C C12A | 1.19
132 | U7A U8C G9A U10G U11C C12U | 1.06
133 | U7A U8C G9A U10G U11C C12G | 1.22
134 | U7A U8A U11A C12U C13G | 1.28
135 | U7A U8A U11A C12U C13U | 1.25
136 | U7A U8A U11A C12U C13A | 1.29
137 | U7A U8C G9A U10A U11A C12G | 1.24
138 | U7A U8C G9A U10A U11A C12A | 1.31
139 | U7A U8C G9A U10A U11A C12U | 1.25
140 | U7A U8C G9A U10C U11A C12A C13A | 1.13
141 | U7A U8C G9A U10C U11A C12A C13G | 1.1
142 | U7A U8C G9A U10C U11A C12A C13U | 1.19
143 | U7A U8C G9A U10C U11A C13G | 1.17
144 | U7A U8C G9A U10C U11A C13A | 1.18

Row | Variant | aptazyme ON/OFF ratio
145 | U7A U8C G9A U10C U11A C13U | 1.28
146 | U7A U8C G9A U10G U11A C12U C13G | 1.14
147 | U7A U8C G9A U10G U11A C12U C13A | 1.19
148 | U7A U8C G9A U10G U11A C12U C13U | 1.11
149 | U7A U8C G9A | 1.74
150 | U7A U8C G9A U11G C12A | 1.11
151 | U7A U8C G9A U11G C12U | 1.79
152 | U7A U8C G9A U11G C12G | 1.24
153 | U7A U8A U11G C12A C13U | 1.46
154 | U7A U8A U11G C12A C13G | 1.11
155 | U7A U8A U11G C12A C13A | 1.15
156 | U7A U8C C12U | 1.49
157 | U7A U8C C12G | 1.18
158 | U7A U8C C12A | 1.42
159 | U7A U8C G9A U10C U11G C12U C13A | 1.29
160 | U7A U8C G9A U10C U11G C12U C13G | 1.35
161 | U7A U8C G9A U10C U11G C12U C13U | 1.41
162 | U7A U8C G9A U10G U11A C12G C13U | 1.3
163 | U7A U8C G9A U10G U11A C12G C13G | 1.07
164 | U7A U8C G9A U10G U11A C12G C13A | 1.11
165 | U7A U8C G9A C12G | 1.43
166 | U7A U8C G9A C12A | 1.22
167 | U7A U8C G9A C12U | 1.21
